Biological target: 4-1BB (TNFRSF9) extracellular domain (Homo sapiens) (UniProt Q07011)
Assay: competition
Settings: all dT replaced by TrpdU (5-(N-tryptaminocarboxyamide)-2'-deoxyuridine); all C 5-methyl-dC; inhibition of 4-1BB ligand capture by receptor on Protein A beads (co-IP); PBS/0.02% Tween-20, 37 C

Question: “CCTGCACCCAGTGTCCCNGANGGGGNNNNNNAGNNGNANNNNGNAANGGNGGANGNNGANGGAGAGGAGGANGG [1684-40]” was tested. Which IC50 did it give?
Answer: 0.81 nM
